Measurements published in the Human Domainome abundance scans (Beltran et al. 2025).
± gives the uncertainty stated by the source.

B1: Neutrophil cytosol factor 2, residues 456 to 514; numbered along this chain, P19878 (parent)
chain: LKKGSQVEALFSYEATQPEDLEFQEGDIILVLSKVNEEWLEGECKGKVGIFPKVFVEDC

Variants of: B1
Assay: abundance fitness (aPCA) (normalised: wild type 0, dead -1); higher = more abundant; growth selection in yeast, the domain comes from the species named
Settings: Homo sapiens

| Variant | abundance fitness |
| --- | --- |
| LKKGSQVEALFSYEATQPEDLEFQEGDIILVLSKVNEEWLEGECKGFVGIFPKVFVEDC | -0.241 ± 0.1 |
| LKKGSQVEALFSYEATQPEDLEFQEGDIILVLSKVNEEWLEGECKGLVGIFPKVFVEDC | -0.361 ± 0.094 |
| LKKGSQVEALFSYEATQPEDLEFQEGDIILVLSKVNEEWLEGECKGQVGIFPKVFVEDC | -0.856 ± 0.41 |
| LKKGSQVEALFSYEATQPEDLEFQEGDIILVLSKVNEEWLEGECKGVVGIFPKVFVEDC | -0.331 ± 0.1 |
| LKKGSQVEALFSYEATQPEDLEFQEGDIILVLSKVNEEWLEGECKGEVGIFPKVFVEDC | -0.822 ± 0.42 |
| LKKGSQVEALFSYEATQPEDLEFQEGDIILVLSKVNEEWLEGECKGIVGIFPKVFVEDC | -0.642 ± 0.15 |
| LKKGSQVEALFSYEATQPEDLEFQEGDIILVLSKVNEEWLEGECKGGVGIFPKVFVEDC | -0.511 ± 0.13 |
| LKKGSQVEALFSYEATQPEDLEFQEGDIILVLSKVNEEWLEGECKGCVGIFPKVFVEDC | -0.658 ± 0.14 |
| LKKGSQVEALFSYEATQPEDLEFQEGDIILVLSKVNEEWLEGECKGYVGIFPKVFVEDC | -0.742 ± 0.14 |
| LKKGSQVEALFSYEATQPEDLEFQEGDIILVLSKVNEEWLEGECKGPVGIFPKVFVEDC | -0.806 ± 0.27 |
| LKKGSQVEALFSYEATQPEDLEFQEGDIILVLSKVNEEWLEGECKGSVGIFPKVFVEDC | -0.22 ± 0.095 |
| LKKGSQVEALFSYEATQPEDLEFQEGDIILVLSKVNEEWLEGECKGMVGIFPKVFVEDC | -0.924 ± 0.32 |
| LKKGSQVEALFSYEATQPEDLEFQEGDIILVLSKVNEEWLEGECKGKPGIFPKVFVEDC | -1.04 ± 0.37 |
| LKKGSQVEALFSYEATQPEDLEFQEGDIILVLSKVNEEWLEGECKGKTGIFPKVFVEDC | -0.031 ± 0.12 |
| LKKGSQVEALFSYEATQPEDLEFQEGDIILVLSKVNEEWLEGECKGKDGIFPKVFVEDC | -0.443 ± 0.17 |
| LKKGSQVEALFSYEATQPEDLEFQEGDIILVLSKVNEEWLEGECKGKNGIFPKVFVEDC | -0.334 ± 0.15 |
| LKKGSQVEALFSYEATQPEDLEFQEGDIILVLSKVNEEWLEGECKGKWGIFPKVFVEDC | -0.901 ± 0.49 |
| LKKGSQVEALFSYEATQPEDLEFQEGDIILVLSKVNEEWLEGECKGKCGIFPKVFVEDC | -0.392 ± 0.16 |
| LKKGSQVEALFSYEATQPEDLEFQEGDIILVLSKVNEEWLEGECKGKFGIFPKVFVEDC | -0.505 ± 0.15 |
| LKKGSQVEALFSYEATQPEDLEFQEGDIILVLSKVNEEWLEGECKGKRGIFPKVFVEDC | 0.68 ± 0.097 |
| LKKGSQVEALFSYEATQPEDLEFQEGDIILVLSKVNEEWLEGECKGKKGIFPKVFVEDC | 0.295 ± 0.19 |
| LKKGSQVEALFSYEATQPEDLEFQEGDIILVLSKVNEEWLEGECKGKAGIFPKVFVEDC | 0.008 ± 0.11 |
| LKKGSQVEALFSYEATQPEDLEFQEGDIILVLSKVNEEWLEGECKGKYGIFPKVFVEDC | -0.17 ± 0.13 |

| Variant | abundance fitness |
| --- | --- |
| LKKGSQVEALFSYEATQPEDLEFQEGDIILVLSKVNEEWLEGECKGKSGIFPKVFVEDC | -0.355 ± 0.13 |
| LKKGSQVEALFSYEATQPEDLEFQEGDIILVLSKVNEEWLEGECKGKIGIFPKVFVEDC | -0.138 ± 0.1 |
| LKKGSQVEALFSYEATQPEDLEFQEGDIILVLSKVNEEWLEGECKGKLGIFPKVFVEDC | -0.706 ± 0.15 |
| LKKGSQVEALFSYEATQPEDLEFQEGDIILVLSKVNEEWLEGECKGKEGIFPKVFVEDC | -0.974 ± 0.44 |
| LKKGSQVEALFSYEATQPEDLEFQEGDIILVLSKVNEEWLEGECKGKGGIFPKVFVEDC | -0.387 ± 0.15 |
| LKKGSQVEALFSYEATQPEDLEFQEGDIILVLSKVNEEWLEGECKRKVGIFPKVFVEDC | -0.392 ± 0.23 |
| LKKGSQVEALFSYEATQPEDLEFQEGDIILVLSKVNEEWLEGECKSKVGIFPKVFVEDC | -0.928 ± 0.18 |
| LKKGSQVEALFSYEATQPEDLEFQEGDIILVLSKVNEEWLEGECKHKVGIFPKVFVEDC | -0.84 ± 0.34 |
| LKKGSQVEALFSYEATQPEDLEFQEGDIILVLSKVNEEWLEGECKIKVGIFPKVFVEDC | -0.615 ± 0.15 |
| LKKGSQVEALFSYEATQPEDLEFQEGDIILVLSKVNEEWLEGECKPKVGIFPKVFVEDC | -0.747 ± 0.47 |
| LKKGSQVEALFSYEATQPEDLEFQEGDIILVLSKVNEEWLEGECKKKVGIFPKVFVEDC | -0.732 ± 0.42 |
| LKKGSQVEALFSYEATQPEDLEFQEGDIILVLSKVNEEWLEGECKYKVGIFPKVFVEDC | -0.352 ± 0.14 |
| LKKGSQVEALFSYEATQPEDLEFQEGDIILVLSKVNEEWLEGECKWKVGIFPKVFVEDC | -0.346 ± 0.21 |
| LKKGSQVEALFSYEATQPEDLEFQEGDIILVLSKVNEEWLEGECKMKVGIFPKVFVEDC | -0.599 ± 0.34 |
| LKKGSQVEALFSYEATQPEDLEFQEGDIILVLSKVNEEWLEGECKCKVGIFPKVFVEDC | -0.479 ± 0.2 |
| LKKGSQVEALFSYEATQPEDLEFQEGDIILVLSKVNEEWLEGECKVKVGIFPKVFVEDC | -0.585 ± 0.15 |
| LKKGSQVEALFSYEATQPEDLEFQEGDIILVLSKVNEEWLEGECKEKVGIFPKVFVEDC | -0.189 ± 0.28 |
| LKKGSQVEALFSYEATQPEDLEFQEGDIILVLSKVNEEWLEGECKLKVGIFPKVFVEDC | -0.226 ± 0.12 |
| LKKGSQVEALFSYEATQPEDLEFQEGDIILVLSKVNEEWLEGECKNKVGIFPKVFVEDC | 0.219 ± 0.11 |
| LKKGSQVEALFSYEATQPEDLEFQEGDIILVLSKVNEEWLEGECKTKVGIFPKVFVEDC | -0.904 ± 0.27 |
| LKKGSQVEALFSYEATQPEDLEFQEGDIILVLSKVNEEWLEGECKAKVGIFPKVFVEDC | -0.313 ± 0.15 |
| LKKGSQVEALFSYEATQPEDLEFQEGDIILVLSKVNEEWLEGECKDKVGIFPKVFVEDC | -0.703 ± 0.19 |
